Measurements: article PMC10268282, “Activator-induced conformational changes regulate division-associated peptidoglycan amidases” (Proceedings of the National Academy of Sciences of the …, 2023)

Target: T1, AmiB hydrolytic domain from Citrobacter rodentium (Citrobacter rodentium, UniProt A0A482PQR2 190-422)
T1 construct: AmiB peptidoglycan amidase, Citrobacter rodentium, hydrolytic (enzymatic) domain, cloned without the N-terminal AmiN domain; Construct limits and tags in SI Appendix; also called AmiB enzymatic domain
T1 sequence: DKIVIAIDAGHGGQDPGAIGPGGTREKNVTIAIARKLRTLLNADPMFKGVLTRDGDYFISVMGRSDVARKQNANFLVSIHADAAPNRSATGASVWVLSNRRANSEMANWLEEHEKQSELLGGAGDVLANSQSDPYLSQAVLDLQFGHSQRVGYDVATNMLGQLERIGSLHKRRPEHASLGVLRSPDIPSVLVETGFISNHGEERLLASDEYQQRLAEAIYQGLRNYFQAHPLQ
Assay: crystal structure; X-ray crystallography, 3.4 Å; molecular replacement with Alphafold models
Details: both partners purified

B1: EnvC LytM domain from Citrobacter rodentium (domain or fragment)
chain: MSRTGGLGSPRGQAYWPVRGPTLHRYGEQLQGELRWKGMVIGASEGTEVKAIADGRVILADWLQGYGLVVVVEHGKGDMSLYGYNQSALVSVGTQVRAGQPIALVGSSGGQGRPSLYFEIRRQGQAVNPQPWLGR
notes: EnvC, Citrobacter rodentium, LytM domain; Construct limits and tags in SI Appendix
binding result: binds
